Assay results reported in patent US20140087995A1 (published 2014).
Each block holds one binder with its values, some of them ahead of it. Numbered stars: 1 amine (or outer) side, 2 acyl side, 3 side chain; on linkers, the order of the positions; unused ones are H or OH. Bridge positions count the residues as written; N and C are the ends. * marks the point of attachment. C20 diacid = O=C(O)CCCCCCCCCCCCCCCCCCC(=O)*; γGlu = O=C(O)[C@H](CCC(=O)[*:2])N[*:1]

Target: T1, human amylin receptor (human, UniProt P30988 25-474; O60896 24-148, limits assumed)
T1 construct: whole, on cells; Used as cell membranes prepared from the Amylin 3(a)/CRE-luc BHK cells (Assay V); also called hAmylin-R; hAmylinR
T1 sequence (looked up) 1: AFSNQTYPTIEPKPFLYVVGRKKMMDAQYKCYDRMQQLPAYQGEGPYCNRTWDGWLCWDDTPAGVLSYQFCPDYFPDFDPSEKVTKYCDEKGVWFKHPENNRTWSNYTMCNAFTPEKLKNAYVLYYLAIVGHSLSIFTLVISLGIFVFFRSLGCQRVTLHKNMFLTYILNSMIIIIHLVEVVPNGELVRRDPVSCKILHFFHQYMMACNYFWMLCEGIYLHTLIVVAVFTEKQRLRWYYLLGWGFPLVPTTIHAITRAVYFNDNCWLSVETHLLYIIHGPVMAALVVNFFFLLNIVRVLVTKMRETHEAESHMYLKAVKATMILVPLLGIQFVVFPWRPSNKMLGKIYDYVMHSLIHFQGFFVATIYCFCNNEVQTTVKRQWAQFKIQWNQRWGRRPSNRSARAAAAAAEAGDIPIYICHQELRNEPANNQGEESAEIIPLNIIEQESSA
T1 sequence (looked up) 2: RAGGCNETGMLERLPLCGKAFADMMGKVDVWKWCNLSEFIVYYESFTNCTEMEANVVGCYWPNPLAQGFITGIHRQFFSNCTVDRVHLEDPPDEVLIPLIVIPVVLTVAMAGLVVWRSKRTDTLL
Assay: SPA competition vs 125I-rat amylin, membranes of amylin 3(a) receptor BHK cells (Assay V)
Protocol: The binding assay was performed using scintillation proximity assay (SPA) beads (RPNQ0001) from PerkinElmer and cell membranes from the Amylin 3(a)/CRE-luc cells (as described in Assay (II)) were used. Membranes were prepared in the following way; the cells were rinsed with PBS and incubated with Versene for approximately 5 min before harvesting. The cells were flushed with PBS and the cell-suspension was centrifuged for 5 min at 1000 rpm. Cells were homogenized (ultrathurrax) in a buffer containing 20 mM Na-HEPES and 10 mM EDTA (pH 7.4) and centrifuged at 20.000 rpm for 15 min. The resulting pellet was resuspended, homogenized and centrifuged (20.000 rpm, 15 min) in a buffer containing 20 mM Na-HEPES and 0.1 mM EDTA (pH 7.4, buffer 2). The resulting pellet was resuspended in buffer 2 and protein concentration was measured (BCA protein Assay, Pierce). The homogenate was kept cold during the whole procedure. The membranes were kept at −80° C. until use. The assay was performed in a 384 well Optiplate (PerkinElmer) in a total volume of 40 ul. Membranes were mixed with SPA beads. Final concentration of membranes 35 ng/μL final and SPA beads was 0.05 mg/well. Test-compounds were dissolved in DMSO and further diluted in assay buffer (50 mM Hepes, pH 7.4, 1 mM CaCl2, 5 mM MgCl₂, 0.1% OA and 0.02% Tween20). […] The final mixture was incubated with shaking at 400 rpm for 120 min at 25° C. prior to centrifugation (1500 rpm, 10 min). Samples were analyzed on TopCounter™ (Packard). The IC₅₀ was calculated using (one site binding competition analysis) GraphPad Prism5 as a measure of receptor affinity.

- IC50: 0.204 nM
B1: N^α1-[(4S)-4-carboxy-4-(19-carboxynonadecanoylamino)butanoyl]-[Glu14,Arg17,Pro21,Pro27,Pro31]-h-amylin (peptide)
peptide: {C20 diacid-γGlu}-KCNTATCATQRLAEFLRHSSPNFGAIPSSTPVGSNTY-NH2
modifications: disulfide 2-7
SMILES: CC[C@H](C)[C@H](NC(=O)[C@H](C)NC(=O)CNC(=O)[C@H](Cc1ccccc1)NC(=O)[C@H](CC(N)=O)NC(=O)[C@@H]1CCCN1C(=O)[C@H](CO)NC(=O)[C@H](CO)NC(=O)[C@H](Cc1c[nH]cn1)NC(=O)[C@H](CCCNC(=N)N)NC(=O)[C@H](CC(C)C)NC(=O)[C@H](Cc1ccccc1)NC(=O)[C@H](CCC(=O)O)NC(=O)[C@H](C)NC(=O)[C@H](CC(C)C)NC(=O)[C@H](CCCNC(=N)N)NC(=O)[C@H](CCC(N)=O)NC(=O)[C@@H](NC(=O)[C@H](C)NC(=O)[C@@H]1CSSC[C@H](NC(=O)[C@H](CCCCN)NC(=O)CC[C@H](NC(=O)CCCCCCCCCCCCCCCCCCC(=O)O)C(=O)O)C(=O)N[C@@H](CC(N)=O)C(=O)N[C@@H]([C@@H](C)O)C(=O)N[C@@H](C)C(=O)N[C@@H]([C@@H](C)O)C(=O)N1)[C@@H](C)O)C(=O)N1CCC[C@H]1C(=O)N[C@@H](CO)C(=O)N[C@@H](CO)C(=O)N[C@H](C(=O)N1CCC[C@H]1C(=O)N[C@H](C(=O)NCC(=O)N[C@@H](CO)C(=O)N[C@@H](CC(N)=O)C(=O)N[C@H](C(=O)N[C@@H](Cc1ccc(O)cc1)C(N)=O)[C@@H](C)O)C(C)C)[C@@H](C)O
notes: also called compound 31

- IC50: 0.919 nM
B2: N^α1-[(4S)-4-carboxy-4-(19-carboxynonadecanoylamino)butanoyl]-[His14,Arg17,Pro21,Pro27,Glu35]-h-amylin (peptide)
peptide: {C20 diacid-γGlu}-KCNTATCATQRLAHFLRHSSPNFGAIPSSTNVGSETY-NH2
modifications: disulfide 2-7
SMILES: CC[C@H](C)[C@H](NC(=O)[C@H](C)NC(=O)CNC(=O)[C@H](Cc1ccccc1)NC(=O)[C@H](CC(N)=O)NC(=O)[C@@H]1CCCN1C(=O)[C@H](CO)NC(=O)[C@H](CO)NC(=O)[C@H](Cc1c[nH]cn1)NC(=O)[C@H](CCCNC(=N)N)NC(=O)[C@H](CC(C)C)NC(=O)[C@H](Cc1ccccc1)NC(=O)[C@H](Cc1c[nH]cn1)NC(=O)[C@H](C)NC(=O)[C@H](CC(C)C)NC(=O)[C@H](CCCNC(=N)N)NC(=O)[C@H](CCC(N)=O)NC(=O)[C@@H](NC(=O)[C@H](C)NC(=O)[C@@H]1CSSC[C@H](NC(=O)[C@H](CCCCN)NC(=O)CC[C@H](NC(=O)CCCCCCCCCCCCCCCCCCC(=O)O)C(=O)O)C(=O)N[C@@H](CC(N)=O)C(=O)N[C@@H]([C@@H](C)O)C(=O)N[C@@H](C)C(=O)N[C@@H]([C@@H](C)O)C(=O)N1)[C@@H](C)O)C(=O)N1CCC[C@H]1C(=O)N[C@@H](CO)C(=O)N[C@@H](CO)C(=O)N[C@H](C(=O)N[C@@H](CC(N)=O)C(=O)N[C@H](C(=O)NCC(=O)N[C@@H](CO)C(=O)N[C@@H](CCC(=O)O)C(=O)N[C@H](C(=O)N[C@@H](Cc1ccc(O)cc1)C(N)=O)[C@@H](C)O)C(C)C)[C@@H](C)O
notes: also called compound 30
